# Laboratory results reported in patent publication US20260274985A1 (MYTHIC THERAPEUTICS, published 2026).
# T1: TROP2 on TROP2-positive NCI-H1975 cells (human, UniProt P09758 27-323)
# T1 sequence: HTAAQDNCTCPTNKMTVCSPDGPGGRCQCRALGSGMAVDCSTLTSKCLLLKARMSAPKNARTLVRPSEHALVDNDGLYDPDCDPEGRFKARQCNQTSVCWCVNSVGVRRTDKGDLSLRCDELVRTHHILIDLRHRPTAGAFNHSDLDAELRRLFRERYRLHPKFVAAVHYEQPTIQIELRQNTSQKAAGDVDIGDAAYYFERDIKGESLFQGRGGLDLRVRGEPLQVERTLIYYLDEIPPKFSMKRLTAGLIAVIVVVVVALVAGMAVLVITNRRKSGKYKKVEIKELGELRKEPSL
# Biological target: T1, TROP2 on TROP2-positive NCI-H1975 cells
# Test: cell-based or functional assay
row,Binder,FOW H1975 (10 nM)
1,"MYT13290 (antibody, V domains shown) VH: QVQLQESGPGLVKPSETLSLTCTVSGGSISSYGVHWIRQPPGKGLEWIGVIWTSGVTDYNSALMGRVTISVDTSKNQFSLKLSSVTAADTAVYYCARDGDYDRYTHDYWGQGTLVTVSS VL: DIVMTQSPDSLAVSLGERATINCRASKSVSTSGYSYMHWYQQKPGQPPKLLIYLASNLESGVPDRFSGSGSGTDFTLTISSLQAEDVAVYYCHHSRELPYTFGQGTKLEIK",1.7 fold over parent antibody
2,"MYT13298 (antibody, V domains shown) VH: QVQLQESGPGLVKPSETLSLTCTVSGGSISSYGVHWIRQPPGKGLEWIGVIWTSGVTDYNSALMGRVTISVDTSKNQFSLKLSSVTAADTAVYYCARDGDYHRYTMDYWGQGTLVTVSS VL: DIVMTQSPDSLAVSLGERATINCRASKSVSTSGYSYMHWYQQKPGQPPKLLIYLASNLESGVPDRFSGSGSGTDFTLTISSLQAEDVAVYYCQHSRHLPYTFGQGTKLEIK",1.59 fold over parent antibody
3,"MYT13285 (antibody, V domains shown) VH: QVQLQESGPGLVKPSETLSLTCTVSGGSISSYGVHWIRQPPGKGLEWIGVIWTSGVTDYNSALMGRVTISVDTSKNQFSLKLSSVTAADTAVYYCARDGDYDRYTHDYWGQGTLVTVSS VL: DIVMTQSPDSLAVSLGERATINCRASKSVSTSGYSYMHWYQQKPGQPPKLLIYLASNLEHGVPDRFSGSGSGTDFTLTISSLQAEDVAVYYCQHSRELPYTFGQGTKLEIK",1.61 fold over parent antibody
4,"MYT13420 (antibody, V domains shown) VH: QVQLQQSGSELKKPGASVKVSCKASGYTFTNYGMNWVKQAPGQGLKWMGWINTYTGEPTYTDDFHGRFAFSLDTSVSTAYLQISSLKADDTAVYFCARGGFGSSYWYFDVWGQGSLVTVSS VL: DIQLTQSPSSLSASVGDRVSITCKASQDVHIAVAWYQQKPGKAPKLLIYSHSYRYTGVPDRFSGSGSGTDFTLTISSLQPEDFAVYYCHQHYITPLTFGAGTKVEIK",1.34 fold over parent antibody
5,"MYT13405 (antibody, V domains shown) VH: QVQLQQSGSELKKPGASVKVSCKASGYTFTNYGMNWVKQAPGQGLKWMGWINTYTGEPTYTDDFKHRFAFSLDTSVSTAYLQISSLKADDTAVYFCARGGFGSSYWYFDVWGQGSLVTVSS VL: DIQLTQSPSSLSASVGDRVSITCKASQDVSIAHAWYQQKPGKAPKLLIYSASYRYTGVPDRFSGSGSGTDFTLTISSLQPEDFAVYYCQQHYHTPLTFGAGTKVEIK",1.16 fold over parent antibody
6,"MYT13395 (antibody, V domains shown) VH: QVQLQQSGSELKKPGASVKVSCKASGYTFTNYGMNWVKQAPGQGLKWMGWINTYTGEPTYTDDHKGRFAFSLDTSVSTAYLQISSLKADDTAVYFCARGGFGSSYWYFDVWGQGSLVTVSS VL: DIQLTQSPSSLSASVGDRVSITCKASQDVSIAHAWYQQKPGKAPKLLIYSASHRYTGVPDRFSGSGSGTDFTLTISSLQPEDFAVYYCQQHYITPLTFGAGTKVEIK",1.29 fold over parent antibody
7,"MYT13416 (antibody, V domains shown) VH: QVQLQQSGSELKKPGASVKVSCKASGYTFTNYGMNWVKQAPGQGLKWMGWINTYTGEPTHTDDFKGRFAFSLDTSVSTAYLQISSLKADDTAVYFCARGGFGSSYWYFDVWGQGSLVTVSS VL: DIQLTQSPSSLSASVGDRVSITCKASQDVHIAVAWYQQKPGKAPKLLIYSHSYRYTGVPDRFSGSGSGTDFTLTISSLQPEDFAVYYCHQHYITPLTFGAGTKVEIK",1.29 fold over parent antibody
8,"MYT13422 (antibody, V domains shown) VH: QVQLQQSGSELKKPGASVKVSCKASGYTFTNHGMNWVKQAPGQGLKWMGWINTYTGEPTYTDDFKGRFAFSLDTSVSTAYLQISSLKADDTAVYFCARGGFGSSYWYFDVWGQGSLVTVSS VL: DIQLTQSPSSLSASVGDRVSITCKASQDVHIAVAWYQQKPGKAPKLLIYSHSYRYTGVPDRFSGSGSGTDFTLTISSLQPEDFAVYYCQQHYHTPLTFGAGTKVEIK",1.13 fold over parent antibody
9,"MYT13379 (antibody, V domains shown) VH: QVQLQQSGSELKKPGASVKVSCKASGYTFTNYGMNWVKQAPGQGLKWMGWINTYTGEPTYTDDHKGRFAFSLDTSVSTAYLQISSLKADDTAVYFCARGGFGSSYWYFDVWGQGSLVTVSS VL: DIQLTQSPSSLSASVGDRVSITCKASQDVHIAVAWYQQKPGKAPKLLIYSHSYRYTGVPDRFSGSGSGTDFTLTISSLQPEDFAVYYCQQHYITPLTFGAGTKVEIK",1.33 fold over parent antibody
10,"MYT13377 (antibody, V domains shown) VH: QVQLQQSGSELKKPGASVKVSCKASGYTFTNYGMNWVKQAPGQGLKWMGWINTYTGEPTYTHDFKGRFAFSLDTSVSTAYLQISSLKADDTAVYFCARGGFGSSYWYFDVWGQGSLVTVSS VL: DIQLTQSPSSLSASVGDRVSITCKASQDVHIAVAWYQQKPGKAPKLLIYSHSYRYTGVPDRFSGSGSGTDFTLTISSLQPEDFAVYYCQQHYITPLTFGAGTKVEIK",1.26 fold over parent antibody
11,"MYT13413 (antibody, V domains shown) VH: QVQLQQSGSELKKPGASVKVSCKASGYTFTNYGMNWVKQAPGQGLKWMGWINTYTGEPTYTDDFKHRFAFSLDTSVSTAYLQISSLKADDTAVYFCARGGFGSSYWYFDVWGQGSLVTVSS VL: DIQLTQSPSSLSASVGDRVSITCKASQDVSIAVAWYQQKPGKAPKLLIYSHHYRYTGVPDRFSGSGSGTDFTLTISSLQPEDFAVYYCQQHYITPLTFGAGTKVEIK",1.06 fold over parent antibody
12,"MYT13401 (antibody, V domains shown) VH: QVQLQQSGSELKKPGASVKVSCKASGYTFTNYGMNWVKQAPGQGLKWMGWINTYTGEPTYTHDFKGRFAFSLDTSVSTAYLQISSLKADDTAVYFCARGGFGSSYWYFDVWGQGSLVTVSS VL: DIQLTQSPSSLSASVGDRVSITCKASQDVSIAHAWYQQKPGKAPKLLIYSASYRYTGVPDRFSGSGSGTDFTLTISSLQPEDFAVYYCQQHYHTPLTFGAGTKVEIK",1.16 fold over parent antibody
13,"MYT13372 (antibody, V domains shown) VH: QVQLQQSGSELKKPGASVKVSCKASGYTFTNYGMNWVKQAPGQGLKWMGWINTYTGEPTYTDDFHGRFAFSLDTSVSTAYLQISSLKADDTAVYFCARGGFGSSYWYFDVWGQGSLVTVSS VL: DIQLTQSPSSLSASVGDRVSITCKASQDVHIAHAWYQQKPGKAPKLLIYSASYRYTGVPDRFSGSGSGTDFTLTISSLQPEDFAVYYCQQHYITPLTFGAGTKVEIK",1.18 fold over parent antibody
14,"MYT13403 (antibody, V domains shown) VH: QVQLQQSGSELKKPGASVKVSCKASGYTFTNYGMNWVKQAPGQGLKWMGWINTYTGEPTYTDDHKGRFAFSLDTSVSTAYLQISSLKADDTAVYFCARGGFGSSYWYFDVWGQGSLVTVSS VL: DIQLTQSPSSLSASVGDRVSITCKASQDVSIAHAWYQQKPGKAPKLLIYSASYRYTGVPDRFSGSGSGTDFTLTISSLQPEDFAVYYCQQHYHTPLTFGAGTKVEIK",1.13 fold over parent antibody
15,"MYT13388 (antibody, V domains shown) VH: QVQLQQSGSELKKPGASVKVSCKASGYTFTNYGMNWVKQAPGQGLKWMGWINTYTGEPTYTDDFHGRFAFSLDTSVSTAYLQISSLKADDTAVYFCARGGFGSSYWYFDVWGQGSLVTVSS VL: DIQLTQSPSSLSASVGDRVSITCKASQDVHIAVAWYQQKPGKAPKLLIYSAHYRYTGVPDRFSGSGSGTDFTLTISSLQPEDFAVYYCQQHYITPLTFGAGTKVEIK",1.24 fold over parent antibody
16,"MYT13400 (antibody, V domains shown) VH: QVQLQQSGSELKKPGASVKVSCKASGYTFTNYGMNWVKQAPGQGLKWMGWINTYTGEPTHTDDFKGRFAFSLDTSVSTAYLQISSLKADDTAVYFCARGGFGSSYWYFDVWGQGSLVTVSS VL: DIQLTQSPSSLSASVGDRVSITCKASQDVSIAHAWYQQKPGKAPKLLIYSASYRYTGVPDRFSGSGSGTDFTLTISSLQPEDFAVYYCQQHYHTPLTFGAGTKVEIK",1.13 fold over parent antibody
17,"MYT13398 (antibody, V domains shown) VH: QVQLQQSGSELKKPGASVKVSCKASGYTFTNHGMNWVKQAPGQGLKWMGWINTYTGEPTYTDDFKGRFAFSLDTSVSTAYLQISSLKADDTAVYFCARGGFGSSYWYFDVWGQGSLVTVSS VL: DIQLTQSPSSLSASVGDRVSITCKASQDVSIAHAWYQQKPGKAPKLLIYSASYRYTGVPDRFSGSGSGTDFTLTISSLQPEDFAVYYCQQHYHTPLTFGAGTKVEIK",1.07 fold over parent antibody
18,"MYT13392 (antibody, V domains shown) VH: QVQLQQSGSELKKPGASVKVSCKASGYTFTNYGMNWVKQAPGQGLKWMGWINTYTGEPTHTDDFKGRFAFSLDTSVSTAYLQISSLKADDTAVYFCARGGFGSSYWYFDVWGQGSLVTVSS VL: DIQLTQSPSSLSASVGDRVSITCKASQDVSIAHAWYQQKPGKAPKLLIYSASHRYTGVPDRFSGSGSGTDFTLTISSLQPEDFAVYYCQQHYITPLTFGAGTKVEIK",1.19 fold over parent antibody
19,"MYT13435 (antibody, V domains shown) VH: QVQLQQSGSELKKPGASVKVSCKASGYTFTNYGMNWVKQAPGQGLKWMGWINTYTGEPTYTDDHKGRFAFSLDTSVSTAYLQISSLKADDTAVYFCARGGFGSSYWYFDVWGQGSLVTVSS VL: DIQLTQSPSSLSASVGDRVSITCKASQDVSIAVAWYQQKPGKAPKLLIYSHSHRYTGVPDRFSGSGSGTDFTLTISSLQPEDFAVYYCQQHYHTPLTFGAGTKVEIK",1.33 fold over parent antibody
20,"MYT13404 (antibody, V domains shown) VH: QVQLQQSGSELKKPGASVKVSCKASGYTFTNYGMNWVKQAPGQGLKWMGWINTYTGEPTYTDDFHGRFAFSLDTSVSTAYLQISSLKADDTAVYFCARGGFGSSYWYFDVWGQGSLVTVSS VL: DIQLTQSPSSLSASVGDRVSITCKASQDVSIAHAWYQQKPGKAPKLLIYSASYRYTGVPDRFSGSGSGTDFTLTISSLQPEDFAVYYCQQHYHTPLTFGAGTKVEIK",1.08 fold over parent antibody
21,"MYT13402 (antibody, V domains shown) VH: QVQLQQSGSELKKPGASVKVSCKASGYTFTNYGMNWVKQAPGQGLKWMGWINTYTGEPTYTDHFKGRFAFSLDTSVSTAYLQISSLKADDTAVYFCARGGFGSSYWYFDVWGQGSLVTVSS VL: DIQLTQSPSSLSASVGDRVSITCKASQDVSIAHAWYQQKPGKAPKLLIYSASYRYTGVPDRFSGSGSGTDFTLTISSLQPEDFAVYYCQQHYHTPLTFGAGTKVEIK",1.1 fold over parent antibody
